In patent US7071300 (dated 2006):

Legend:
IGF-1 [1] = target: T1, IGF-1 (human, UniProt P05019); test: competition, IGF-1 phage binding to IGFBP-1
IGF-1 [2] = target: T1, IGF-1; test: competition, IGF-1 phage binding to IGFBP-3
IGF-1 [3] = target: T1, IGF-1; test: competition, 125I-IGF-1 binding to MCF-7 cells

T1 sequence (P05019 49-118): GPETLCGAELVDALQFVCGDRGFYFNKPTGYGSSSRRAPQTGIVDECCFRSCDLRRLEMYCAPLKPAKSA

IC50 (IGF-1 [1]) [µM]	IC50 (IGF-1 [2]) [µM]	IC50 (IGF-1 [3]) [µM]	Binder
15.5	9.2	15.3	MDCLASVEALKWCMYG [F1-2]
1.4	2.93	5.12	RNCFESVAALRRCMYG [F1-1]
11.7	12.8	45.7	FECLTSVEALRGCMYG [F1-3]
